Laboratory results reported in patent publication US6969760 (ST JUDE CHILDREN S RESEARCH HOSPITAL, dated 2005).

Columns and labels:
Assay in all cases: pull-down from DA3(EPOR) cell extracts on GST-EPOR cytoplasmic domain beads, immunoblot
lyn = target: T1, lyn (UniProt P25911 2-512, limits assumed)
T1 construct: also called lyn kinase
Experimental: (§1) The fusion proteins were purified by affinity binding to glutathione-sepharose beads and the proteins, on affinity beads, were incubated with extracts of unstimulated or EPO stimulated DA3(EPOR) cells. The bound proteins were recovered from the beads, resolved on SDS-PAGE and the gels blotted to nitrocellulose. The blots were subsequently probed with antisera against various tyrosine kinases.

c-fes = c-fes (UniProt P16879 1-822)
Experimental: as §1

murine Tec = target: T2, murine Tec (murine, UniProt P24604 1-630, limits assumed)
T2 sequence (looked up): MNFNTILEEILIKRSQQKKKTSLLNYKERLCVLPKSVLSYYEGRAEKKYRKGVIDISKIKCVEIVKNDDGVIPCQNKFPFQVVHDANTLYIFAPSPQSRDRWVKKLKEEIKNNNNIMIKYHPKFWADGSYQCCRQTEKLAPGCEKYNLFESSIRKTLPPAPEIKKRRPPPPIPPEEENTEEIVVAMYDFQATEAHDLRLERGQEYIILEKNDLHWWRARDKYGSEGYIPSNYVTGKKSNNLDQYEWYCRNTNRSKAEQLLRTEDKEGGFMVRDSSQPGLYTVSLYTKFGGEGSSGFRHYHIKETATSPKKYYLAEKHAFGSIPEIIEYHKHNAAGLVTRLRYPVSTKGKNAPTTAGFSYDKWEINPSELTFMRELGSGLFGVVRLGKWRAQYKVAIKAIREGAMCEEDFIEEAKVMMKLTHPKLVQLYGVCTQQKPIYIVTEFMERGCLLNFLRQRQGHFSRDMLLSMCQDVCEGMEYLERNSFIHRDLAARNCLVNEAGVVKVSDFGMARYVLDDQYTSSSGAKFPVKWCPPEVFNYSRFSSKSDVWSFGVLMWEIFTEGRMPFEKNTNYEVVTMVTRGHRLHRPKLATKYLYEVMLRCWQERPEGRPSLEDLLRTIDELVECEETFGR
Experimental: as §1

Measured: binding result

Chain of c-fes (P16879 whole entry): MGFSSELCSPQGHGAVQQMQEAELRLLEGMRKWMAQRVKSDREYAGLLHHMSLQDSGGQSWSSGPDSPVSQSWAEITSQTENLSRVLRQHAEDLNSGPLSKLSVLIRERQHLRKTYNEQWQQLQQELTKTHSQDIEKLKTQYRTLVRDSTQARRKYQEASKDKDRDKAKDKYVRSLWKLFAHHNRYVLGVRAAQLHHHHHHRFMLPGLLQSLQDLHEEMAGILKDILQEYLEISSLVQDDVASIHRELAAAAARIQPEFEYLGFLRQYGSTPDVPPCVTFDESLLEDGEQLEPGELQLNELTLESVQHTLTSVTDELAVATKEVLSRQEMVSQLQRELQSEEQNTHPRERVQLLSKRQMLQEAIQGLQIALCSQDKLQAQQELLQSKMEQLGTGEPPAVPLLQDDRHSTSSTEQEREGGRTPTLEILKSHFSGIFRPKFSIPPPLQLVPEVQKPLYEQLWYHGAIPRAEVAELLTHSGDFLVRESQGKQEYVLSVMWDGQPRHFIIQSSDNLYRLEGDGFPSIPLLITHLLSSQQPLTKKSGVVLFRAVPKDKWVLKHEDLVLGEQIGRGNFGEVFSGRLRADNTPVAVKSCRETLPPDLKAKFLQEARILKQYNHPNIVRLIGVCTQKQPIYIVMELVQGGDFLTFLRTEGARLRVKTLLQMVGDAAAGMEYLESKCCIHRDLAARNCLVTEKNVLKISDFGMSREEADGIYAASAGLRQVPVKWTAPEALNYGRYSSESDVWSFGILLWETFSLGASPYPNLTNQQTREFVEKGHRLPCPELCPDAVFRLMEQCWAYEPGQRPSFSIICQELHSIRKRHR
T1 sequence (P25911 2-512 limits assumed): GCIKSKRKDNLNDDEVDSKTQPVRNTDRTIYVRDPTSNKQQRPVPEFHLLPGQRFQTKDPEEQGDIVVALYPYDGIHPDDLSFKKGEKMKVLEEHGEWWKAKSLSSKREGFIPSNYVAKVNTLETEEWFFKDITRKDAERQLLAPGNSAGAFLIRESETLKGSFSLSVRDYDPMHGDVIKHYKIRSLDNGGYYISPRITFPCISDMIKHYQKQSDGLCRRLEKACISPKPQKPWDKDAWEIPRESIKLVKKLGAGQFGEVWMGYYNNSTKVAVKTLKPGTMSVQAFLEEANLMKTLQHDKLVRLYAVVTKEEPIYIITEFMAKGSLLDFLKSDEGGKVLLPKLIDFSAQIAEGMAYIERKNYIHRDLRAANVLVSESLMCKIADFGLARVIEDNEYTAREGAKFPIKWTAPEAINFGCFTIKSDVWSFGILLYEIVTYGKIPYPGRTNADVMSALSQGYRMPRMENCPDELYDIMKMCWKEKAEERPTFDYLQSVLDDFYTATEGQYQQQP

B1: GST fusion protein containing the full length murine EPOR cytoplasmic domain (amino acids 257-483) (other, UniProt P14753 281-507, looked up)
chain: IWPGIPSPESEFEGLFTTHKGNFQLWLLQRDGCLWWSPGSSFPEDPPAHLEVLSEPRWAVTQAGDPGADDEGPLLEPVGSEHAQDTYLVLDKWLLPRTPCSENLSGPGGSVDPVTMDEASETSSCPSDLASKPRPEGTSPSSFEYTILDPSSQLLCPRALPPELPPTPPHLKYLYLVVSDSGISTDYSSGGSQGVHGDSSDGPYSHPYENSLVPDSEPLHPGYVACS
notes: range 257-483; Expressed in E. coli and immobilised on glutathione-sepharose; also called GST-EPOR fusion protein; fusion protein containing the complete cytoplasmic domain; not shown: amino-terminal glutathione-S-transferase (GST) domain encoded by pGEX-2T
no binding: all assays above
